# Reference: article PMC5390082 (Scientific Reports, 2015)
# Molecular target: T1, Trifunctional enzyme (TFP), ECHA/ECHB, immunopurified from human macrophage extract (human (endogenous in THP-1), UniProt P40939 37-763; P55084 34-474)
# T1 construct: also called immunopurified human TFP
# Experiment: SPR; Biacore 3000; […]; 20 mM Tris-HCl pH 8.0, 50 mM NaCl, 5 mM EDTA, 0.005% P20, 1 mM DTT; […]
# Settings: both partners purified
# T1 sequence (P40939 37-763, chain 1 of 2): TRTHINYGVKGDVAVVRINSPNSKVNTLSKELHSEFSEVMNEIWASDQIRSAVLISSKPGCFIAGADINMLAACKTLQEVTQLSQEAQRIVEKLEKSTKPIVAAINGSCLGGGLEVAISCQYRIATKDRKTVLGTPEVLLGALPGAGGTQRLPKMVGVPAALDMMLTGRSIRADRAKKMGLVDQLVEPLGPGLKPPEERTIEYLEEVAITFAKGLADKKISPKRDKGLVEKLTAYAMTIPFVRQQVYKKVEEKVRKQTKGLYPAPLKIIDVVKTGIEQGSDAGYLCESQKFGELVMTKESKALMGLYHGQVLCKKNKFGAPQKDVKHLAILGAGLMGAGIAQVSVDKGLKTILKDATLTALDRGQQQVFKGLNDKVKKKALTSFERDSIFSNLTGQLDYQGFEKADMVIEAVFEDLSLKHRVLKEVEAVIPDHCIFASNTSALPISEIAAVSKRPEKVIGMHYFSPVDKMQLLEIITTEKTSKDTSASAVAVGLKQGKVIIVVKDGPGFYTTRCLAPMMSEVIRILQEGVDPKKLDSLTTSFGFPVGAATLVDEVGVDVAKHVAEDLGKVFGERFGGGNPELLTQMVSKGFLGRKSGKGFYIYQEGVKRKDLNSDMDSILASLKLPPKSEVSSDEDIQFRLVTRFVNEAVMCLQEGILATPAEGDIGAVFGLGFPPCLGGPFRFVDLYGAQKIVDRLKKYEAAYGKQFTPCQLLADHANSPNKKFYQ
# T1 sequence (P55084 34-474, chain 2 of 2): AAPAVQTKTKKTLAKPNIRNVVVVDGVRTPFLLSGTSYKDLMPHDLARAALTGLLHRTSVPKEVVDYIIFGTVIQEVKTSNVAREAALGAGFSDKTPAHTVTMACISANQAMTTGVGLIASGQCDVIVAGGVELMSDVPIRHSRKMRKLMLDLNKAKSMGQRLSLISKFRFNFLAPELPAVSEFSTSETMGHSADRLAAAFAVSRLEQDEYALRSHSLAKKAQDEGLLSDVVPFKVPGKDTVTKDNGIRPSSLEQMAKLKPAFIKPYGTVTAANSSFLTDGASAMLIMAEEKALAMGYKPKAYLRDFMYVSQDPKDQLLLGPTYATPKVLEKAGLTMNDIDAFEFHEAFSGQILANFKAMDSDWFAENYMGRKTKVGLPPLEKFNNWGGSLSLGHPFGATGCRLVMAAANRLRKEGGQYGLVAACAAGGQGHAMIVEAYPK
binder,measurement,value
Mycobacterium tuberculosis protein tyrosine phosphatase PtpA wt (enzyme) MSDPLHVTFVCTGNICRSPMAEKMFAQQLRHRGLGDAVRVTSAGTGNWHVGSCADERAAGVLRAHGYPTDHRAAQVGTEHLAADLLVALDRNHARLLRQLGVEAARVRMLRSFDPRSGTHALDVEDPYYGDHSDFEEVFAVIESALPGLHDWVDERLARNGPS,binding result,binds
